# According to the nanobody polyreactivity screen of Harvey et al. (2022):
# Assay: yeast display, Sf9 membrane polyspecificity reagent, FACS + sequencing; frameworks hold sequencing errors
# In short: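 Genes from sorted yeast were amplified by colony PCR, read by MiSeq 2 × 250 sequencing and filtered on CDR length. These cells carried a synthetic nanobody library in Saccharomyces cerevisiae BJ5465 and were sorted by FACS into low and high (top ~1%) gates on anti-HA and streptavidin fluorescence. Polyreactivity is labelled according to the gate of origin.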
row,Sequence,polyreactivity (PSR sort gate)
1,QVQLVESGGGLVQAGGSLRLSCAASGFTFGYNDMGWYRQATGKVRELVAGIRSGDDTNYADSVKGRFTISRDNAKNTVYLQMNSLKPEDTAVYYCAVGYGDYLYYDYDYWGQGTQVTVSS,low polyreactivity
2,QVQLVESGGGLVQAGGSLRLSCAASGFTFGYNTMGWYRQAPGNERELGAAISWRGGSTFYADSVKGRFTISRDNAKNTVYLQMNSLKPEDTAVYYCNVLRLDQRYPSLRDDWGQGTQVTVSS,high polyreactivity
3,QVQLVESGGGLVQAGGSLRLSCAASGFTFGYYAMGWYRQAPGKERELVAAINWSGVNTNYADSVKGRFTISRDNAKNTVYLQMNSLKPEDTAVYYCAADAGYDGYGYWGQGTQVTVSS,low polyreactivity
4,QVQLVESGGGLVQAGGSLRLSCAASGFTFGYYAMGWYRQAPGKERELVAAISSSGGRTYYADSVKGRFTISRDNAKNTVYLQMNSMKPEDTAVYYCAAVYIRYPIQYSLLRYDYWGQGTQVTVSA,high polyreactivity
5,QVQLVESGGGLVQAGGSLRLSCAASGFTFGYYAMGWYRQAPGKERELVAAITFRGGRTYYADSVKGRFTISRDNAKNTVYLQMNSLKPEDTAVYYCAALSLVRYYHNANYYPYYYWGQGTQVTVSS,high polyreactivity
6,QVQLVESGGGLVQAGGSLRLSCAASGFTFGYYAMGWYRQAPGKERELVATITSSGASTYADSVKGRFTISRDNAKNTVYLQMNSLKPEDTAVYYCAADRLPSYWSWYGYDYWGQGTQVTVSS,high polyreactivity
7,QVQLVESGGGLVQAGGSLRLSCAASGFTFGYYAMGWYRQAPGKEREVVAAIRGGGRTNYADSVKGRFTISRDNAKITVYLQMNSLKPEDTAVYYCNADRLRTLRGDDWGQGSQVTVSS,low polyreactivity
8,QVQLVESGGGLVQAGGSLRLSCAASGFTFGYYDMGWYRQAPGKERELVAAISSSDVSTYADSVKGRFTISRDNAKNTVYLQMNSLKPEDTAVYYCAADFWYSYYYWGQGTQVTVSS,high polyreactivity
9,QVQLVESGGGLVQAGGSLRLSCAASGFTFGYYGMGSYRQAPGKERELVAAISWSGGSTYYADSVKGRFTISRDNAKNTVYLQMNSLKPEDTAVYYCAASAGYASNYWGQGTQVTVSS,low polyreactivity
10,QVQLVESGGGLVQAGGSLRLSCAASGFTFGYYTMGWYRQAPGKERELVAAISWSGGSTYYADSVKGRFTISRDNAKNTVYLQMNSLKPEDTAVYYCAAYRYGYDYWGQGTQVTVSS,high polyreactivity
11,QVQLVESGGGLVQAGGSLRLSCAASGFTFHHYAMGWYRQAPGKERELVAAITRSGGTTYYADSVKGRFTISRDNAKNTVYLQMNRLKPEDTAVYYCAADTGAKRYYRYDYWGQGTQVTVSS,high polyreactivity
12,QVQLVESGGGLVQAGGSLRLSCAASGFTFHKNAMGWYRQAPGKERELVAAITYRGGSTSYADSVKGRFTISRDNAKNTFYLQMNSLKPEDTAVYYCAAELRPYITYDGPRKKFYYWGQGTQVTVSS,high polyreactivity
13,QVQLVESGGGLVQAGGSLRLSCAASGFTFHKYAMGWYRQAPGKERELVAAISWSGDRTYYADSVKGRFTISRDNAKNTVYLQMNSLKPEDTAVYYCAAATRYSFYIKYDYWGQGTQVTVSS,high polyreactivity
14,QVQLVESGGGLVQAGGSLRLSCAASGFTFHNNVMGWYRQAPGKEMELVATISKSGGSTYYADSVKGRFTISRDNAKNTVYLQMNSLKPEDTAVYYCARSYRDYGRYGYWGQGTQVTVSS,high polyreactivity
15,QVQLVESGGGLVQAGGSLRLSCAASGFTFHYNAMGWYRQAPRKEREFVAAISGSGDRTYYADSVKGRFTISRDNAKNTVYLQMNSLKPEDTAVYYCATSVRQNYFYSYDYWGQGTQVTVSS,high polyreactivity
16,QVQLVESGGGLVQAGGSLRLSCAASGFTFHYYTMGWYRQAPGKERELVASINYSGGRTYYADSVKGRFTISRDNAKNTVYLQMNSLKPEDTAVYYCNARYKSTYYYWGLGTQVTVSS,high polyreactivity
17,QVQLVESGGGLVQAGGSLRLSCAASGFTFIRNAMGWYRQAPVKERELVAAISKSGGTTYYADSVKGRFTISRDNAKNTVYLQMNSLKPEDTAVYYCNKGIGRSDPDYRYYYWGQGTQVTVSS,high polyreactivity
18,QVQLVESGGGLVQAGGSLRLSCAASGFTFIRNGMGWYRQAPGKERELVAAINSRGGNTYYADSVKGRFTISRDNAKNTVYLQMNSLKPEDTAVYYCNRVVQRWSTQYGYWGQGTQVTVSS,high polyreactivity
19,QVQLVESGGGLVQAGGSLRLSCAASGFTFIRYAMGWYRQAPGKERELVASISNRGGRTYYADSVKGRFTISRDNAKNTVYLQMNSLKPEDTAVYYCAAGYSTYRAVWTDNNYWGQGTQVTVSS,high polyreactivity
20,QVQLVESGGGLVQAGGSLRLSCAASGFTFISNAMGWYRQAPGKERELVAAISSSGGRTYYADSVKGRFTISRDNAKNTVYLQMNRLKPEDTAVYYCNAVRSLLYSRKIEYDYWGQGTQVTVSS,low polyreactivity
21,QVQLVESGGGLVQAGGSLRLSCAASGFTFISYAMGWYRQAPGKERELVADISSSGDSTSYADSVKGRFTISRDNAKNTVYLQMNSLKPEDTAVYYCAAGDGYVYGEYDYWGQGTQVTVSS,low polyreactivity
22,QVQLVESGGGLVQAGGSLRLSCAASGFTFITNAMGWYRQAPGNERELVASISIGGSTNYADSVKGRFTISRDNAKNTVYLQMNSLKPEDTAVYYCAARVYRRLFLPGRFGRPLGYWGQGTQVTVSS,high polyreactivity

row,Sequence,polyreactivity (PSR sort gate)
1,QVQLVESGGGLVQAGGSLRLSCAASGFTFIYYAMGRYRQAPRKERELVAAISSGGSTYYADSVKGRFTISRDNAKNTVYLQMNSLKPEDTAVYYCAAGYWWPVQYYSRYNYWGQGTQVTVSS,high polyreactivity
2,QVQLVESGGGLVQAGGSLRLSCAASGFTFIYYAMGWYRQAPGKERELVAAISRVDSTYYADSVKGRFTISSDNAKNTIYLQMNRLKPEDTAVYYFAAASQVRRDHGYWGQGTQVTVSS,low polyreactivity
3,QVQLVESGGGLVQAGGSLRLSCAASGFTFKAYAMGWYRQAPGKERELVAAITKSGGRTFYADSVKGRFTISRDTAKNTVYFQMNSLKPEDTAVYYCAASYTVYYWGQGTQVTVSS,high polyreactivity
4,QVQLVESGGGLVQAGGSLRLSCAASGFTFKAYAMGWYRQAPGKERELVAAITRSGGRTYYADSVKGRFTISRDNAKNTVYLQMNSLKPEDTAVYYCARDYTRYAYDHWGQGTQVTVSS,high polyreactivity
5,QVQLVESGGGLVQAGGSLRLSCAASGFTFKFNAMGWYRQAPGKERELVAAISYSGGSTYYADSVKGRFTISRDNAKNTVYLQMNSLKPEDTAVYYCAARAYWYGASYYYWGQGPQVTVSS,high polyreactivity
6,QVQLVESGGGLVQAGGSLRLSCAASGFTFKFNTMGWYRQAPGKERELVAANSWRGGDTSYADSVKGRFTISRENAKNTVFLQMYSLKPEDNAVYYCAARSTSIGQRSLHYGYWGQGTQVTVSS,low polyreactivity
7,QVQLVESGGGLVQAGGSLRLSCAASGFTFKGNAMGWYIQAPGKERELVATITQSAGYTYYADSVKGRFTISRDNAKNTVYLQLNSLKPEDTAVYYCNADPITLYYYSWYNYWGQGTQVTVSS,low polyreactivity
8,QVQLVESGGGLVQAGGSLRLSCAASGFTFKGYAMGWYRQAPGKERELVAAITRGGSTYYADSVKGRFTISRDNAKNTVYLLMNSLKPEDTAVYYCAARGRGHGTTPNDYWGQGTQVTVSS,high polyreactivity
9,QVQLVESGGGLVQAGGSLRLSCAASGFTFKKNAMGWYRQATGKERELVAAIRSGTSTKYADSVKGRFTISRDNAKNTVYLQMNSLKPEDTAVYYCAAEEPEYLATWRNRRYDYWGQGTQVTVSS,low polyreactivity
10,QVQLVESGGGLVQAGGSLRLSCAASGFTFKSYAMGWSRQAPGKERELVAAISRGGSTYYADSVKGRFTISRDNAKNTVYLQMNSLKPEDTAVYYCNKTRYSRSYYEYDYWGQGTQVTVSS,low polyreactivity
11,QVQLVESGGGLVQAGGSLRLSCAASGFTFKYNAMGWYRQAPGKERELVAGITLRGGSTYYADSVKGRFTISRDNAKNTVYLQMNSLKPEDTAVYYCGAAASNWREYWYWGQGTQVTVSS,low polyreactivity
12,QVQLVESGGGLVQAGGSLRLSCAASGFTFKYNAMGWYRQAPGKERELVASISRGSSTNYADSVKGRFTISRDNAKNTVYLQMNSLKPEDTAVYYCAKGYRPWGSYDYWGQGTQVTVSS,high polyreactivity
13,QVQLVESGGGLVQAGGSLRLSCAASGFTFKYNVMGWYRQAPGKERELVAAISKRGGNTYYADSVKGRFTISRDNAKNTVYLQMNSLKPEDTAVYYCAADPTSPETSGQGYDYWGQGTQVTVSS,high polyreactivity
14,QVQLVESGGGLVQAGGSLRLSCAASGFTFKYYAMGWYRPAPGKERELVAAIRRSAGSTNYADSVKGRFTISRDNAKNTVYLQMNSLKPEDTAVYYCNTVGTRQPMDYWGQGTQVTVSS,high polyreactivity
15,QVQLVESGGGLVQAGGSLRLSCAASGFTFKYYVMGWSRQAPGKERELVASLSKRGGSTRYADSVKGRFTISRDNAKTTFYLQMHSLKPEDTAVYYCAAAFVRPPPYVGYSRFDYWGQGTQVTLSS,high polyreactivity
16,QVQLVESGGGLVQAGGSLRLSCAASGFTFKYYVMGWYRQAPGKAREWVAAITNGGSTYYADSVKGRFTISRDNAKNTVYLQMNSLKPEDTAVYYCAASAYYHWLFDYRGQGTQVTVSS,high polyreactivity
17,QVQLVESGGGLVQAGGSLRLSCAASGFTFKYYVMGWYRQAPGKERELVASISKRGGSRNYADSVKGRFTISRDNAKNTVYLQMNSLKPEDTAVYYCAADYPATSGPRHYYWGQGTQVTVSS,high polyreactivity
18,QVQLVESGGGLVQAGGSLRLSCAASGFTFLDSYAMGWYRQAPGKERELVAGITWSVGTTYYADSVKGRFTISRDNAKNTVYLHMNSLKPEDTAVYYCNAVIDVHDPEYDYWGQGTQVTVSS,low polyreactivity
19,QVQLVESGGGLVQAGGSLRLSCAASGFTFLGNAMGWYRQAPGKERELVATITSGGNTKYADSVKGRFTISRDNAKNTVYFQINSLKPEDTAVYYFARDRKRQADDICEFDYWGQGSQVTVSS,low polyreactivity
20,QVQLVESGGGLVQAGGSLRLSCAASGFTFLGNVMGWYRQAPGKERELVAAISITGSTSYADSVKGRFTISRDNAKNTVYLQMNSLKPEDTAVYYCAADGGQVDDSATRLYYWGQGTQVTVSS,high polyreactivity
21,QVQLVESGGGLVQAGGSLRLSCAASGFTFLINAMGWYRQAPGKERELVAAIRSGGSTNYADSVKGRFTISRDNAKNSVYFQMNSLKPEDTAVYYCAARRYYPYKYRYGYWGQGTQVTVSS,high polyreactivity
